Test results: PMC6627510, “The Role of a Key Amino Acid Position in Species-Specific Proteinaceous dUTPase Inhibition” (Biomolecules, 2019)

How the values were obtained:
[1] = target: Escherichia coli dUTPase Q93H mutant (Escherichia coli); test: crystal structure; EcDUT^Q93H with 5 mM dUPNPP; hanging drop, 0.1 M TRIS, 18-33.75 % PEG 3350, 400 mM NaAc, pH 7.5, 295 K
[2] = target: Escherichia coli dUTPase Q93H mutant (Escherichia coli)
[3] = target: Escherichia coli dUTPase Q93R mutant (Escherichia coli)
[4] = target: Escherichia coli dUTPase Q93H mutant (Escherichia coli); test: steady-state enzyme inhibition; 50 nM dUTPase, 0-400 nM Stl, 5 min pre-incubation at 20 °C, 30 µM dUTP; 1 mM HEPES, 150 mM KCl, 5 mM MgCl2, 40 µM phenol red, pH 7.5; quadratic equation fitted, K is the Ki (IC50)
[5] = target: Escherichia coli dUTPase Q93R mutant (Escherichia coli); test: as above

Escherichia coli dUTPase Q93H mutant (enzyme)
stoichiometry N [1]: 3

Stl_(SaPIbov1) protein (staphylococcal repressor) (natural protein)
decrease of the steady-state velocity of dUTPase on Stl addition [2]: 58% | decrease of the steady-state velocity of dUTPase on Stl addition [3]: 47% | Ki [4]: 4.83 nM | Ki [5]: 5.9 nM
